Reference: PMC3728988, “Kinetic mechanism of the dimeric ATP sulfurylase from plants” (Bioscience Reports, 2013)

T1: soybean ATP sulfurylase isoform 1 (GmATPS1) (Glycine max, UniProt Q8SAG1)
T1 construct: homodimer
T1 sequence (Q8SAG1 49-462): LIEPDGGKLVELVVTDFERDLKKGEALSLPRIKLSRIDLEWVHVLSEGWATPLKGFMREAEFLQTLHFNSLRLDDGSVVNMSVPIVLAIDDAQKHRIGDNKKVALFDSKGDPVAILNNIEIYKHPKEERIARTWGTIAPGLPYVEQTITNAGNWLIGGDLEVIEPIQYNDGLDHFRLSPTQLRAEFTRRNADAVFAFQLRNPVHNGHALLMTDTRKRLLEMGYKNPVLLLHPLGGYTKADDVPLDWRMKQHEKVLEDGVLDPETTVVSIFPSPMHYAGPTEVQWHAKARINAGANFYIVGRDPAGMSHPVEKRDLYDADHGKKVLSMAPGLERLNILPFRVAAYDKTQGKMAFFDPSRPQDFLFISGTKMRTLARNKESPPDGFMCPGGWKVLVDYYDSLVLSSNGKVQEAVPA


Tests used:
[1] = target: T1, soybean ATP sulfurylase isoform 1 (GmATPS1); test: dead-end inhibition kinetics, coupled spectrophotometric assay of APS synthesis; assay type: biochemical
purified protein [2] = substrate: Nc1ncnc2c1ncn2[C@@H]1O[C@H](COP(=O)(O)OP(=O)(O)OP(=O)(O)O)[C@@H](O)[C@H]1O; test: purified protein; conditions: Mg2+ binds first in the forward reaction
purified protein [3] = substrate: O=S(=O)(O)O; test: purified protein; conditions: ATP, Mg2+ binds after ATP; chlorate competes with it

Molecule	Ki [1]	Km (purified protein [2])	Km (purified protein [3])
[O-][Cl+2]([O-])O [chlorate]	103 ± 19 µM	–	–
soybean ATP sulfurylase isoform 1 (GmATPS1) (Glycine max) (protein) LIEPDGGKLVELVVTDFERDLKKGEALSLPRIKLSRIDLEWVHVLSEGWATPLKGFMREAEFLQTLHFNSLRLDDGSVVNMSVPIVLAIDDAQKHRIGDNKKVALFDSKGDPVAILNNIEIYKHPKEERIARTWGTIAPGLPYVEQTITNAGNWLIGGDLEVIEPIQYNDGLDHFRLSPTQLRAEFTRRNADAVFAFQLRNPVHNGHALLMTDTRKRLLEMGYKNPVLLLHPLGGYTKADDVPLDWRMKQHEKVLEDGVLDPETTVVSIFPSPMHYAGPTEVQWHAKARINAGANFYIVGRDPAGMSHPVEKRDLYDADHGKKVLSMAPGLERLNILPFRVAAYDKTQGKMAFFDPSRPQDFLFISGTKMRTLARNKESPPDGFMCPGGWKVLVDYYDSLVLSSNGKVQEAVPA	–	221 ± 41 µM	1,030±280 μM
